The results in this text go back to patent US20240287138A1, “CYCLIC PEPTIDES FOR INHIBITING TNF RECEPTOR 1 ACTIVITY” (Merck Sharp & Dohme LLC, priority 2023, published 2024).

Numbered stars: 1 amine (or outer) side, 2 acyl side, 3 side chain; on linkers, the order of the positions; unused ones are H or OH. Bridge positions count the residues as written; N and C are the ends. Square brackets hold non-standard residues; d marks the D form. Ends that are not written are not given here. * marks the point of attachment. RbOHPhe4CONH2 = (2S,3R)-2-amino-3-(4-carbamoylphenyl)-3-hydroxypropanoic acid, NC(=O)c1ccc([C@@H](O[*:3])[C@H](N[*:1])C(=O)[*:2])cc1; bhcLeu = (1R,3S)-3-aminocyclopentane-1-carboxylic acid, O=C([C@@H]1CC[C@H](N[*:1])C1)[*:2]; Trp(βS-Me,7-OMe) = COc1cccc2c([C@H](C)[C@H](N)C(=O)O)c[nH]c12; dPro(trans-4-NMe2) = CN(C)[C@@H]1CN[C@@H](C(=O)O)C1; Trp(7-CN) = N#Cc1cccc2c(C[C@H](N)C(=O)O)c[nH]c12; Biotin = O=C1N[C@H]2[C@H](CS[C@H]2CCCCC(=O)*)N1; Phe(4-COOH) = N[C@@H](Cc1ccc(C(=O)O)cc1)C(=O)O; Trp(7-aza) = N[C@@H](Cc1c[nH]c2ncccc12)C(=O)O; Pip(4-aza) = O=C(O)[C@@H]1CNCCN1; hPhe = N[C@@H](CCc1ccccc1)C(=O)O; 4Pal = N[C@@H](Cc1ccncc1)C(=O)O; Cit = NC(=O)NCCC[C@H](N)C(=O)O; αMeS = C[C@](N)(CO)C(=O)O; NMeA = CN[C@@H](C)C(=O)O; Nle = CCCC[C@H](N)C(=O)O; AEA = NCCOCC(=O)O; Sar = CNCC(=O)O

Assay [1] has as its target T1, TNFR1 on THP-1 Lucia NF-kB reporter cells, P19438.
T1 chain: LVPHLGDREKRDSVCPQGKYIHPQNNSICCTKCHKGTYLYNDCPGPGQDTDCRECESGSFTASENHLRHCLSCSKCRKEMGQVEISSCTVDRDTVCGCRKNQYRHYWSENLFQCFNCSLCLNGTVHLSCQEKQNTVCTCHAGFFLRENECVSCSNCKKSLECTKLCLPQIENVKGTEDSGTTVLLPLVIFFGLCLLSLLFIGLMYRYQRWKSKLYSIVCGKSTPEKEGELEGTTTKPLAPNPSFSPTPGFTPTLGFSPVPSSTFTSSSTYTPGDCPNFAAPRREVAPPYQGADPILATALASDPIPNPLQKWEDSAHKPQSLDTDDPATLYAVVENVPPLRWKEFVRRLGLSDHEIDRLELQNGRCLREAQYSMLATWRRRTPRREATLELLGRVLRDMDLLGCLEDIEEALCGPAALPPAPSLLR
Nature of the assay: cell-based or functional assay.

Assay [2] addresses T2, TNFR1 on THP-1 Lucia NF-κB cells, P19438.
T2 chain: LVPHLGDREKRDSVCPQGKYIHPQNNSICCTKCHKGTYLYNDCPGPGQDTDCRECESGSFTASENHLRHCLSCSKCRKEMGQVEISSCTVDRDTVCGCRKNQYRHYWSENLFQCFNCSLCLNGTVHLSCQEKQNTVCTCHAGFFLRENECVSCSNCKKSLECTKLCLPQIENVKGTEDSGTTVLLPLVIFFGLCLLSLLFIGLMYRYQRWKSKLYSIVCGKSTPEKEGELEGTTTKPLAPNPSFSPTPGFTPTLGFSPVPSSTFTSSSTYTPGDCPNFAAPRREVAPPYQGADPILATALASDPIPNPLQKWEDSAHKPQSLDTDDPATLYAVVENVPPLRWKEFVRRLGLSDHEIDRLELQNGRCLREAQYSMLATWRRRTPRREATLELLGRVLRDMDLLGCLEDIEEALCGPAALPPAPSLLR
Nature of the assay: cell-based or functional assay.

Assay [3] has as its target T3, Recombinant human TNFR1 extracellular domain (ECD) protein, biotinylated via C-terminal avi-tag (human).
T3 chain: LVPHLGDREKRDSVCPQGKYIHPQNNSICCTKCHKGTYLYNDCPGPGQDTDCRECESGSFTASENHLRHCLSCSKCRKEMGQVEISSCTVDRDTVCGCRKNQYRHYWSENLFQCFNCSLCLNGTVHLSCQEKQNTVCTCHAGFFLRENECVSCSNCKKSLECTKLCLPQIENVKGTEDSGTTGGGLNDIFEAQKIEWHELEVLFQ
In words: SPR, peptide analyte on captured biotinylated TNFR1 ECD. Background: SPR reads the build-up and loss of mass on a sensor chip optically.

The target in assay [4] is T4, C'-terminally 6His-tagged human soluble TNFR1 (sTNFR1, residues 1-211) (human).
T4 chain: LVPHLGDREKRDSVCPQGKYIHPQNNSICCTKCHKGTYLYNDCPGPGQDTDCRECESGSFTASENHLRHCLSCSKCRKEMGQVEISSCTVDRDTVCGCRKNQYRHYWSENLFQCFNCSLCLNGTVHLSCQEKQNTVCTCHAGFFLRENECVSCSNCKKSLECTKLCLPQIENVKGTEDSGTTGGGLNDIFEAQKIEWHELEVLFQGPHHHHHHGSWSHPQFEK
Nature of the assay: TR-FRET displacement of biotinylated peptide SEQ ID NO. 1 from sTNFR1-6His. A general note: In TR-FRET formats the signal depends on donor and acceptor labels being close together.

The target in assay [5] is T5, TNFR1 on THP-1 Lucia NF-κB reporter cells, P19438.
T5 chain: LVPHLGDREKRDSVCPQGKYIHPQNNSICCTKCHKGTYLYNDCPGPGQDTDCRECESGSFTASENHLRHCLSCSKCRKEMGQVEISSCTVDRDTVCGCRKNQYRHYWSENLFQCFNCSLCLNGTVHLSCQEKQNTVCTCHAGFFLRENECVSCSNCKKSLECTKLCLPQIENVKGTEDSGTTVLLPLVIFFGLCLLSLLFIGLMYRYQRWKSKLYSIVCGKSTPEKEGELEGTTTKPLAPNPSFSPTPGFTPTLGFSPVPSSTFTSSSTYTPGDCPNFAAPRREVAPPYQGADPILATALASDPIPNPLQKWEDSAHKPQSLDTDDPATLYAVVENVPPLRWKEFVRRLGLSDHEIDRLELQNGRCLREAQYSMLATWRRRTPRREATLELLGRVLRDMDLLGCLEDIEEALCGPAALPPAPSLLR
Nature of the assay: cell-based or functional assay.

Assay [6] deals with T6, recombinant human TNFR1 extracellular domain (ECD), biotinylated via C-terminal Avi-tag, construct SEQ. ID NO. P2 (human).
T6 chain: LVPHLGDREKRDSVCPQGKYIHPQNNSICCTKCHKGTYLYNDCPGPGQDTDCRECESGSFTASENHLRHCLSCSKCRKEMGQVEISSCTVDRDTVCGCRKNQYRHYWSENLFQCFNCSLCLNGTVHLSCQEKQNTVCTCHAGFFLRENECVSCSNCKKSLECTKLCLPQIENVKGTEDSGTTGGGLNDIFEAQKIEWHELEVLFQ
Nature of the assay: SPR (Cytiva 8K/8K+), peptide analyte over captured biotinylated human TNFR1 ECD.

Assay [7] addresses T7, human soluble TNFR1, C-terminally 6His-tagged (sTNFR1-6His, residues 1-211), SEQ. ID NO. P1 (human).
T7 chain: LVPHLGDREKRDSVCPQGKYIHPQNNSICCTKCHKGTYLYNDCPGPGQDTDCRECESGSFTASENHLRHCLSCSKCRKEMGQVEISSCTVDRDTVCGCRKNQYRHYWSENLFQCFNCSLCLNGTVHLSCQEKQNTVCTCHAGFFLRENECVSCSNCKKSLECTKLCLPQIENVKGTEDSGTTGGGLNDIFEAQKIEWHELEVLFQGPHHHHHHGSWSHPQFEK
In words: TR-FRET displacement of biotinylated peptide SEQ ID NO. 1 from sTNFR1-6His; 4-parameter fit.

The target in assay [8] is human soluble TNFR1, C-terminally 6His-tagged (sTNFR1-6His, residues 1-211), SEQ. ID NO. P1 (human). Nature of the assay: TR-FRET displacement of biotinylated peptide SEQ ID NO. 1 from sTNFR1-6His; Morrison-based 5-parameter fit.

In assay [1], {CH2CO}-FYSW[Sar]NYWSYY[Sar]WCG[AEA]K(Biotin) (thioether N-14) [SEQ ID NO. 1] showed a THP-1 IC50 of 227 nM.

B1: SEQ ID NO. 260 (peptide)
peptide: {CH2CO}-[hPhe]YSW[NMeA]N[4Pal]W[αMeS][Phe(4-COOH)]R[Sar]WC-NH2
modifications: thioether N-14
SMILES: C[C@H]1C(=O)N[C@@H](CC(N)=O)C(=O)N[C@@H](Cc2ccncc2)C(=O)N[C@@H](Cc2c[nH]c3ccccc23)C(=O)N[C@@](C)(CO)C(=O)N[C@@H](Cc2ccc(C(=O)O)cc2)C(=O)N[C@@H](CCCNC(=N)N)C(=O)N(C)CC(=O)N[C@@H](Cc2c[nH]c3ccccc23)C(=O)N[C@H](C(N)=O)CSCC(=O)N[C@@H](CCc2ccccc2)C(=O)N[C@@H](Cc2ccc(O)cc2)C(=O)N[C@@H](CO)C(=O)N[C@@H](Cc2c[nH]c3ccccc23)C(=O)N1C
The term Kd denotes the free concentration of one partner at which half of the binding sites on the other are occupied at equilibrium, for simple one-to-one binding. One may read the IC50 as the point on the concentration scale where inhibition reaches its midpoint. A lower IC50 goes with greater potency in that assay. B1 registered a THP-1 IC50 in assay [2] of 50.1 nM. In assay [3], the Kd was determined as 6 nM. For the same molecule, the IC50 in assay [4] was 10.2 nM.

B2: SEQ ID NO. 256 (peptide)
peptide: {CH2CO}-KYSW[dP][Cit][4Pal]W[αMeS][Phe(4-COOH)]Y[Sar]WC-NH2
modifications: thioether N-14
SMILES: CN1CC(=O)N[C@@H](Cc2c[nH]c3ccccc23)C(=O)N[C@H](C(N)=O)CSCC(=O)N[C@@H](CCCCN)C(=O)N[C@@H](Cc2ccc(O)cc2)C(=O)N[C@@H](CO)C(=O)N[C@@H](Cc2c[nH]c3ccccc23)C(=O)N2CCC[C@@H]2C(=O)N[C@@H](CCCNC(N)=O)C(=O)N[C@@H](Cc2ccncc2)C(=O)N[C@@H](Cc2c[nH]c3ccccc23)C(=O)N[C@@](C)(CO)C(=O)N[C@@H](Cc2ccc(C(=O)O)cc2)C(=O)N[C@@H](Cc2ccc(O)cc2)C1=O
Consider B2, for which the THP-1 IC50 in assay [2] was determined as 6.1 nM. In addition, the dissociation constant (Kd) in assay [3] came out at 1.4 nM. Moreover, the IC50 in assay [4] came out at 1.84 nM.

B3: SEQ ID NO. 242 (peptide)
peptide: {CH2CO}-KYSW[dP]Q[4Pal]W[αMeS][Phe(4-COOH)]Y[Sar]WC-NH2
modifications: thioether N-14
SMILES: CN1CC(=O)N[C@@H](Cc2c[nH]c3ccccc23)C(=O)N[C@H](C(N)=O)CSCC(=O)N[C@@H](CCCCN)C(=O)N[C@@H](Cc2ccc(O)cc2)C(=O)N[C@@H](CO)C(=O)N[C@@H](Cc2c[nH]c3ccccc23)C(=O)N2CCC[C@@H]2C(=O)N[C@@H](CCC(N)=O)C(=O)N[C@@H](Cc2ccncc2)C(=O)N[C@@H](Cc2c[nH]c3ccccc23)C(=O)N[C@@](C)(CO)C(=O)N[C@@H](Cc2ccc(C(=O)O)cc2)C(=O)N[C@@H](Cc2ccc(O)cc2)C1=O
As for B3, in assay [2], the THP-1 IC50 was determined as 3 nM. Also, in assay [3], the Kd was 0.3 nM. The same molecule yielded a half-maximal inhibitory concentration (IC50) in assay [4] of 1.21 nM.

On to FYSWGNYWSYYGWCGEE (modifications not checked) [SEQ ID NO. 289 (Example No. 289) macrocyclic peptide], for which, in assay [5], the THP-1 IC50 was determined as 36.4 nM. In addition, the dissociation constant Kd in assay [6] was 7.43 nM. The molecule also yielded a 50% inhibitory concentration (IC50) in assay [7] of 9.87 nM.

B4: SEQ ID NO. 287 (Example No. 287) macrocyclic peptide (peptide)
peptide: cyclo([bhcLeu][Nle][4Pal][Pip(4-aza)][Trp(7-aza)][dPro(trans-4-NMe2)]N[Phe(4-COOH)][Trp(7-CN)][αMeS][Phe(4-COOH)][RbOHPhe4CONH2][Sar][Trp(βS-Me,7-OMe)])
SMILES: CCCC[C@@H]1NC(=O)[C@@H]2CC[C@@H](C2)NC(=O)[C@H]([C@@H](C)c2c[nH]c3c(OC)cccc23)NC(=O)CN(C)C(=O)[C@H]([C@H](O)c2ccc(C(N)=O)cc2)NC(=O)[C@H](Cc2ccc(C(=O)O)cc2)NC(=O)[C@](C)(CO)NC(=O)[C@H](Cc2c[nH]c3c(C#N)cccc23)NC(=O)[C@H](Cc2ccc(C(=O)O)cc2)NC(=O)[C@H](CC(N)=O)NC(=O)[C@H]2C[C@H](N(C)C)CN2C(=O)[C@H](Cc2c[nH]c3ncccc23)NC(=O)[C@@H]2CNCCN2C(=O)[C@H](Cc2ccncc2)NC1=O
Molecule B4 registered a Kd^app in assay [8] of 0.22 nM.
